Test results: a protein production outcome set (Wang et al. 2014)

test: label from the status in PepcDB records

Sequence	protein production
MAVRFFHTSDWHLGQFFYNHSRHYEHEQFLAWLLKQIKAKQPHALLIAGDIFDVINPSSQAQKQLYQFLADAHALAPHMQTLMIAGNHDSGYRIEQVEPLLEKYNARTVGVIRWNEDKTLNLERLILPVYDENKNVVAWCIALPFLRSAEITGFNEHTNNSQSAIAYLHEQLISEAKRRKTDDQAIILMSHAHMQGGETSDSERPIIIGNEEALSTALFDDAIDYVALGHLHKPQKVQHPHIRYSGSPIPLSFSEINYKHQVVDVNIDPTQSTDKFQFEAIEIPRSIKLHKIRGELNEVIQQLKSLAQGEIESIDLREYIDIEYHTLTPPLPNLRQQFEDALPPKRYRLVRISRQYLSQDNNAAQASKINLEPPTPEKLFEQIWDKKGYHADDDVKKDFMSLVAQAQQQLEDQHKY	failed
MAVRIVDDLQQLSLLLMFLSTFIFYRYLKKVKRERKLTGFEWTMYFVTQFATLIWAITYFIKHLAES	failed
MAVRVCCHAPPGVSNHLFTFCAGNLTTGFSGGSVTSQKGGAAGLPTCSRRCPRGCLPGSDPLPRHPRRYAPPVTPPVTPPTTPAPRSRARMLELVFPKDTNYHGTAFGGWVLALMDKAASVAAVRHAGGNVVTARMDGVDFHVPIRVGDAVALDARVIRVGRSSMTIRVDVYRENMASGEQQLATGGLFTFVALGEDGKPRPVPPLPEGSTDSEQPDYEARP	failed
MAVSKMEKMTIIAAAEKEAAILQAIQGLQIVEVKRIFHSPEEEQALKSQYSFLQAEQSTEQLRKYETMLQQLQELLLFLTRSSGKGLKIKRKVYTLEELEQTFDEETLQSYLTELKNIQESLKQIQTDRQGLEAEEELLGRWQYLDVLPHKQQLKSSYVVHGSINLANKASFLSALSQWPTVYFEEIYQSMHHSYFTLVYLKEHQQSVTELLNQYSFEPLQYRYDVPPKEAYQQVKERYEILQKEEKALKQQLASYHDFYETFCLAEEVLLAVIQREQARQHLLNASSFFILQTWIPVEEKAEILTAIEEKVPKDEIALTFENPTKAEIETDIPVKLANNKLVQPFEMLTEMYSLPKYEEVDPTPAMMPFYLVFFGMMVADIGYGLLMLLLSIIALKAFVLPRGMKRFADFFLILSFPTIIWGFIYGSFFGAALPPIMFGIKSPFPILSTTEDVNTILILSVIFGFIQLVVGLMINGIQLSKQKRYLDSINESYAWLGILFGLALLVVGKLVVKNEGLFTAGAILASLSAIAIIVIPMIQSKAKLKGLAKGLYGLYGVTGYVGDLVSYTRLMALGIAGGSIASAFNMLVEFMPPVARFSVGILLLIVLHALNIFLSLLGAYVHGARLQYVEFFGKFYTGGGRAFNPLKTKEKYVNVEKK	failed
MAVSSGTFSTFLCIKTTSFRNPSTPLSSLRFASHPAAKLRLVRAVTSATESSEPTATNKRVPRGIMKPRPVSPEMQDIVELPEIARTQALKRIWAYIKEHDLQDPQNKREILCDEKLKKIFEGRDRVGFLEIAKLIGPHFL	failed
MAVVASAPGKVLMTGGYLVLEKPNAGLVLSTNARFYAIVKPINEEVKPESWAWKWTDVKLTSPQLSRESMYKLSLNHLTLQSVSASDSRNPFVEHAIQYAIAAAHLATEKDKESLHKLLLQGLDITILGSNDFYSYRNQIESAGLPLTPESLGTLAPFASITFNAAESNGANSKPEVAKTGLGSSAAMTTAVVAALLHYLGVVDLSDPCKEGKFGCSDLDVIHMIAQTSHCLAQGKVGSGFDVSCAVYGSQRYVRFSPEVLSFAQVAVTGLPLNEVIGTILKGKWDNKRTEFSLPPLMNLFLGEPGSGGSSTPSMVGAVKKWQMSDPEKARENWQNLSDANLELETKLNDLSKLAKDHWDVYLRVIKSCSVLTSEKWVLHATEPINEAIIKELLEAREAMLRIRILMRQMGEAASVPIEPESQTQLLDSTMSAEGVLLAGVPGAGGFDAIFAITLGDSGTKLTQAWSSHNVLALLVREDPHGVCLESGDPRTTCITSGVSSIHLE	failed
MAWNKQVALVFLPSDSGVDGARSLYGDTEPPGLRRWLDSGVRNLIKRTQFAIPPLALMILASIEVPGVEQTLCDLRFEEFPFDRQWDLVGISVQTGMASKAFELADRLRSRGVKVVLGGPHVTMFPDSCRAHADCLVHGEADDLWRDVLADLVTDSLKAEYRPDAPPDLQLHRPVSRASLKKNRYFTTNLVQTGRGCPYQCDFCNVHVLNGRVLRQRKIDHIVDEVRRFSEEDKRIFFFVDDSINGDPLFARELFKHLIPLNITWFGQATTALGQQPELLDTFARSGCRALLVGIESIEPSSRIAHKKTQNRTDELAGNIRAIRKSGISLYGSFIYGLDGDTLQTPQAILDFIADTRLDVPGINTLRPIPGTKVFDRLREEGRLLFDPEDITSFRYTFGQEMLYRPKNIPLPEFIESYSELTRKVFNIGNAIRRGLEAPGINAAVLFFNLFYTHLYRLSRNDLRKQLETLGSA	failed
MAYDDIVSSMVLELRRGTLVMLVLSQLREPAYGYALVKSLADHGIPIEANTLYPLMRRLESQGLLASEWDNGGSKPRKYYRTTDEGLRVLREVEAQWHVLCDGVGKLLETNGEDREHAER	not failed
MAYDGLFTKKMVESLQFLTTGRVHKINQPDNDTILMVVRQNRQNHQLLLSIHPNFSRLQLTTKKYDNPFNPPMFARVFRKHLEGGIIESIKQIGNDRRIEIDIKSKDEIGDTIYRTVILEIMGKHSNLILVDENRKIIEGFKHLTPNTNHYRTVMPGFNYEAPPTQHKINPYDITGAEVLKYIDFNAGNIAKQLLNQFEGFSPLITNEIVSRRQFMTSSTLPEAFDEVMAETKLPPTPIFHKNHETGKEDFYFIKLNQFNDDTVTYDSLNDLLDRFYDARGERERVKQ	not failed
MAYDIERYLDIRGAGDPTYGPTGELAFTLGTTGTAQVWALGAPGAWPTQLTFHDERVQWASFSPTREELAYGMDTGGDEFTQLHRVSGDGSEDVQLTAFPDAKHDWGGWSHDGDRIAYTANRRDASRFDVYVQGRDEAGANADCVRVGDTFDLPSVVGWSPSDDRLLVVDTHSNFDQDVAVLDVDTGEITRATAGLDADTRFSWVAWAPDGGGVYVTTDHDADTRYLGLLDPETGAISRVADGGDWPIEAVVTAHDAGRLAYVRNRDGYSELTIADAAGTTLTEQPTPELPDGVIRGLSWGPDGDTLAVVVSAATENPNVFVVDVATGAATQWTNAATAGIPKSTFREPELVRYETFDGREIPALFTRPDGDGPHPVIVDFHGGPEGQRRPSFLSLRQYFVDNGYAVFEPNVRGSSGYGATYMNLDNVRNRMDAVADGKAGVEWLTARTDIDADRVVAYGGSYGGFMVLASLTEYPELWAAGVDIVGIANFVTFLENTGDWRREHRESEYGSLDADREFLESISPTNNADRIRAPLLVLHGANDPRVPVGEAERIVEQASAHVPVEKHVFDDEGHGFSKRANKQAAYRAVVDFLDDHALEHHHHHH	failed
MAYFYLAEAGDWSFRTVWHDRFFTVLKHHPARTEKVEQADYIFLDADFALETNWPYYGSQRKAILKGDRFPTDEEILAFLFDHPVSGYGKPLVLINMNPLAQWPAIAQVLPDVVVVSHCHTLGNYRVGIDVSFPPMPLLDQHCYPSRDRSTLLSFRGANSHPVREQLQRLHQPPEIAAELIQQSYWGTLNYVDEAEGLSAEQQVYTDLIARSRFSVAPRGHDIFSYRLLEVMAGGAIPVILADDWVLPFSELLDWSEFSLSVAEDRCWELPQLLQAISTDQWQVMQQHLQQVYQHYFYSLARQVQTLWQILDQRSLHPSASEVEIEAVLLSQAERYRLKGDLEAAATYLATLPRSPARILEQARLALTQQQPKAALALLDSMVMPEAEQGEHYNLLGVAQTQLGEWDTAIAIYRQGLQAQPHHPKLRTNLCVALRQQEQWEEALALSQALLEEVPAAIDRLLLQADTLNLAGRYDQALSLYQQVVAREPERANAQLAIAEILLRQGKAEGWDIYEARFAAEPSLAALAAHYPQPRWQGVELGQRSLLVWGEQGYGDQIQFSRYLWVLRDRYPQARIQFQTDAVLVPLFAEPLASLGIKVIPAQITEELFDFQVPLLSLPRLVWPSLKDIPYREGWLPCPLPPPREDQNHKFRVGIVWLAGQRAGIQKSATADRRSCSLEAMLELVRESMQRSDLEVVSLQLGYEGRLPEGIQDWSNRLVDFSATARVLMELDLLVTVDTAIVHLAGAMGTPAKVLLAYPPDWRWQQNLELTWYSSIELCYFAHLLSSF	failed
MAYNSNSNNNNNNIVVVFDFDKTIIDVDSDNWVIDELGFTDLFNQLLPTMPWNTLMDRMMKELHDQGKTIEEIKQVLRTIPIHPRVVPAIKSAHDLGCELRIVSDANMFFIETIVEHLGISELFSEINSNPGYVDERGTLKISPYHDFTKSPHSCSCGTCPPNMCKGLIIERIQQSLAKEGKKKMIYLGDGAGDYCPSLKLNTEDYVMPRKNFPVWDLISQNPMLIKAAIREWTDGQSMEMILIGTIEEIRLEEEKEKMLTSAENNCKMQTISIGINNVHHEPILPRALRVSQSS	failed
